We go through four molecules from US6734342B2, “Theobromine synthase polypeptide of coffee plant and the gene encoding said polypeptide” (Nara Institute of Science and Technology, priority 2000, dated 2004).

A short description of series [1]: Measurement of enzymatic (methyl transferase) activity of GST fusion proteins by thin layer chromatography. The following applies: for activity as theobromine synthase: polypeptides with higher than 80% homology to SEQ.ID. NO: 1; for activity as a methyl transferase: substrates xanthine, 7-methylxanthine, theobromine, paraxanthine, theophylline, 200 μM each. The series is classed as biochemical. As for the experimental part: The open reading frame regions of MTL1 (Clone #1), MTL2 (Clone #6), MTL3 (Clone #35) and MXMT1 (Clone #45) were amplified by PCR (polymerase chain reaction). Then, they were optionally cloned into pGEX 4T-2 vector (Pharmacia) and E. coli (JM109) cells were transformed with the resulting plasmids. The obtained E. coli cells were cultured in LB liquid medium containing ampicillin. When OD600 of the culture reached to 0.5, IPTG (isopropyl thio-β-D-galactoside) was added to it and the final concentration of IPTG was made to 1 mM, then the mixture was further cultured at 16° C. for 6 hours. E. coli was desrupted by a sonicator and the protein of the purpose was purified by glutathione Sepharose 4B as a GST (glutathione S-transferase) fusion protein. Concentration of the protein was measured by the Bradford method. Each of the GST fusion protein (500 ng) was separated by SDS-PAGE (sodium dodecyl sulfate polyacrylamide gel electro-phoresis), then it was stained by CBB (coumasie Brilliant Blue) to confirm purification.
Measurement of enzymatic activity was performed using thin layer chromatography (TLC), based on the method of Kato et al. (Plant Physiol., 1996, 98, 629-636). In concrete, the reaction mixture of 100 μl, containing 100 mM Tris-HCl (pH 7.5), 200 μM substrate (xanthine, 7-methylxanthine, theobromine, paraxanthine, theophylline), 4 μM ^14C-labeled S-adenosylmethionine, 200 μM MgCl2, 200 ng GST fusion protein, was incubated at 27° C. for 2 hours. After the reaction, the resulting mixture was extracted with 1 ml of chloroform, the chloroform layer was recovered, then chloroform was evaporated by speed back concentrator. The residue was dissolved in 5 μl of 50% methanol solution, then the solution was developed by TLC (solvent for development was water:acetic acid:n-butanol=2:1:4, v/v/v). After the development, signal of radio activity was detected by image analyzer (Fuji BAS 2000). The result of enzymatic activity, which was measured on the fusion proteins derived from MTL2, MTL3 and MXMT1 using xanthine (X), 7-methylxanthine (7-Mx), theobromine (Tb), paraxanthine (Px) and theophylline (Tp) as the substrate, was shown in FIG. 5.

Series [2] is described as follows: Enzymatic activity measurement and identification of the reaction product by HPLC. The series is classed as biochemical. The following applies: 200 μM 7-methylxanthine, 50 μM S-adenosylmethionine, 200 ng GST fusion protein, 27° C., 2 hours; UV 254 nm (FIG. 6). Here is the method:
Using high performance liquid chromatography (HPLC), enzymatic activity of the MXMT1 fusion protein was measured and reaction product obtained from the enzymatic reaction was identified. The reaction mixture of 100 μl, containing 100 mM Tris-HCl (pH 7.5), 200 μM of substrate (7-methylxanthine, paraxanthine, theobromine), 50 μM of S-adenosylmethionine, 200 μM of MgCl2, 200 ng of GST fusion protein, was incubated at 27° C. for 2 hours. After incubation, the mixture was extracted with 1 ml of chloroform, the chloroform layer was recovered, then chloroform was evaporated by a speed back concentrator. The residue was dissolved in 50 μl of 12% acetonitrile. Then the solution was fractionated by HPLC (Shodex Rspak DS-613 column) provided with UV detection system. As the solution for development, 12% acetonitrile was used and the signal was detected for absorbance of 254 nm.
The MXMT1 fusion protein was reacted with S-adenosylmethionine and 7-methylxanthine, which is the substrate and the reaction product was analyzed by HPLC. […] Furthermore, S-adenosylmethionine and 7-methylxanthine was reacted with MXMT1 fusion protein and then theobromine was added to the reaction mixture. The peak position of the reaction product detected in FIG. 6A coincided with the position of theobromine, which was analyzed as the standard compound. […]

B1: SEQ.ID. NO: 3: Coffea arabica polypeptide homologous to MXMT1, encoded by clone #1 cDNA (SEQ ID NO: 4) (protein, listed as Caffea arabica)
chain: MELQEVLHMNGGEGEASYAKNSSFNQLVLAKVKPVLEQCVRELLRANLPNINKCIKVADLGCASGPNTLLTVWDTVQSIDKVKQEMKNELERPTIQVFLTDLFQNDFNSVFMLLPSFYRKLEKENGRKIGSCLIAAMPGSFHGRLFPEESMHFLHSSYSLQFLSQVPSGLVTELGITANKRSIYSSKASPPPVQKAYLDQFTKDFTTFLRMRSEELLSRGRMLLTCICKGDECDGPNTMDLLEMAINDLVAEGRLGEEKLDSFNVPIYTASVEEVKCMVEEEGSFEILYLQTFKLRYDAGFSIDDDCQVRSHSPVYSDEHARAAHVASLIRSVYEPILASHFGEAIIPDIFHRFATNAAKVIRLGKGFYNNLIISLAKKPEKSDI
For the molecule B1, in series [1], the “activity as theobromine synthase” value is on record as “did not exhibit activity as theobromine synthase”.

B2: MTL2: Coffea arabica polypeptide homologous to MXMT1, encoded by clone #6 cDNA (SEQ ID NO: 6) (protein, listed as Caffea arabica)
chain: MELQEVLHMNGGEGDASYAKNSSFNQLVLAKVKPVLEQCVGELLRANLPNINKCIKVADLGCASGPNTLLTVRDIVQSIDDVRQEMKNELERPTIQVFLTDLFQNDFNSVFMLLPSFYRKLEKENGRKIGSCLIAAMPGSFHGRLFPEESMHFLHSSYSLQFLSQVPSGLVTELGITANKRSIYSSKASPPPVQKAYLDQFTKDFTTFLRIRSEELLSRGRMLLTCICKGDEFDGPNTMDLLEMAINDLVVEGHLEEEKLDSFNVPIYAASVEELKCIVEEEGSFEILYLETFKLRYDAGFSIDDDCQVRSHSPEYSDEHARAAHVASLLRSVYEPILANHFGEAIIPDIFHRFATNAAKVIRLGKGFYNNLIISLAKKPEKSDI
Consider B2, for which the “activity as theobromine synthase” value in series [1] is recorded as “did not exhibit activity as theobromine synthase”. In addition, the “activity as a methyl transferase” value in series [1] (TLC (FIG. 5)) is “did not exhibit activity as a methyl transferase”.

B3: MTL3: Coffea arabica polypeptide homologous to MXMT1, encoded by clone #35 cDNA (SEQ ID NO: 8) (protein, listed as Caffea arabica)
chain: MELQEVLRMNGGEGDTSYAKNSAYNQLVLAKVKPVLEQCVRELLRANLPNINKCIKVADLGCASGPNTLLTVRDIVQSIDKVGQEKKNELERPTIQIFLNDLFPNDFNSVFKLLPSFYRKLEKENGRKIGSCLIGAMPGSFYSRLFPEESMHFLHSCYCLQWLSQVPSGLVTELGISTNKGSIYSSKASRLPVQKAYLDQFTKDFTTFLRIHSEELFSHGRMLLTCICKGVELDARNAIDLLEMAINDLVVEGHLEEEKLDSFNLPVYIPSAEEVKCIVEEEGSFEILYLETFKVLYDAGFSIDDEHIKAEYVASSVRAVYEPILASHFGEAIIPDIFHRFAKHAAKVLPLGKGFYNNLIISLAKKPEKSDV
For B3, the “activity as theobromine synthase” value in series [1] was “did not exhibit activity as theobromine synthase”. In series [1] (TLC (FIG. 5)), the “activity as a methyl transferase” value was “did not exhibit activity as a methyl transferase”.

B4: MXMT1: theobromine synthase polypeptide of Coffea arabica, amino acids 1 to 378 of SEQ ID NO: 1, expressed in E. coli as GST fusion (protein, listed as Caffea arabica)
chain: MELQEVLHMNEGEGDTSYAKNASYNLALAKVKPFLEQCIRELLRANLPNINKCIKVADLGCASGPNTLLTVRDIVQSIDKVGQEEKNELERPTIQIFLNDLFQNDFNSVFKLLPSFYRKLEKENGRKIGSCLISAMPGSFYGRLFPEESMHFLHSCYSVHWLSQVPSGLVIELGIGANKGSIYSSKGCRPPVQKAYLDQFTKDFTTFLRIHSKELFSRGRMLLTCICKVDEFDEPNPLDLLDMAINDLIVEGLLEEEKLDSFNIPFFTPSAEEVKCIVEEEGSCEILYLETFKAHYDAAFSIDDDYPVRSHEQIKAEYVASLIRSVYEPILASHFGEAIMPDLFHRLAKHAAKVLHMGKGCYNNLIISLAKKPEKSDV
Consider B4, for which the “activity to synthesize theobromine, using 7-methylxanthine as the substrate” value in series [1] (200 μM 7-methylxanthine, 4 μM 14C-S-adenosylmethionine, 200 ng GST fusion protein, 27° C., 2 hours, TLC (FIG. 5)) is “potent activity to synthesize theobromine”. Also, the “relative activity to synthesize caffeine, using paraxanthine as the substrate” value in series [1] (200 μM paraxanthine, relative to the activity with 7-methylxanthine, TLC (FIG. 5)) is listed as 15%. The “reaction product identified by HPLC” value in series [2] is reported as “theobromine was formed”.
